# From patent EP2074145B1
# Columns and labels:
# [1] = target: T1, peptide 13 (aa 13-21 of Aβ); test: ELISA with biotinylated peptide Amyloid beta 13-21
# T1 sequence (peptide, biotinylated (site not stated)): HHQKLVFFA
# [2] = target: biotinylated complete Aβ1-42 peptide (Bachem) (UniProt P05067); test: ELISA with biotinylated complete Aβ1-42 peptide
# [3] = target: T1, peptide 13 (aa 13-21 of Aβ); test: ELISA with biotinylated peptides (Mimotopes protocol)
# Chain of biotinylated complete Aβ1-42 peptide (Bachem) (P05067 672-713 limits assumed): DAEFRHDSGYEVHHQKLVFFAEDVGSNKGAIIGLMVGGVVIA
substance,measurement,setting,value
humanized anti-human amyloid beta monoclonal antibody hC2,O.D,[1],1.23 O.D
same,O.D,[2],0.9 O.D
same,percent higher affinity than to the whole Aβ1-42 protein,[3],36%
